Consider nine molecules from article PMC10018359, “Allosteric effects of E. coli SSB and RecR proteins on RecO protein binding to DNA” (Nucleic Acids Research, 2023).

By Kd is commonly meant the equilibrium constant for the complex coming apart. Usually stoichiometry N stands for a count of units in the complex or per binding partner.

To fix the notation:
T1: RecO;RecR (Escherichia coli;Escherichia coli, UniProt P0A7H3;P0A7H6 1-242;1-201, |)
T1 sequence 1: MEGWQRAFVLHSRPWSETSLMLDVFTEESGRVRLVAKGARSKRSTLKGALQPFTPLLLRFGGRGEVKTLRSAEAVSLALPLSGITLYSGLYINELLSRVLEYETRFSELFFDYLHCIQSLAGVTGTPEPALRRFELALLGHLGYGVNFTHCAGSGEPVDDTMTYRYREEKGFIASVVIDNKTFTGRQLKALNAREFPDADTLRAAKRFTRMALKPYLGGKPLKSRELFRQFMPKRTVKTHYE
T1 sequence 2: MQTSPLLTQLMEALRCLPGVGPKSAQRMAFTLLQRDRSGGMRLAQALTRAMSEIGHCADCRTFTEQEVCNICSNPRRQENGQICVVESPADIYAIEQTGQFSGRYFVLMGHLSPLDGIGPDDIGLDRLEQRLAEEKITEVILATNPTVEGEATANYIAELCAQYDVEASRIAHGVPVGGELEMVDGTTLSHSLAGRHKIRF

T2: RecO (Escherichia coli, UniProt P0A7H3 1-242)
T2 sequence: T1 sequence 1

B1: Escherichia coli RecO protein (natural protein, E. coli, UniProt P0A7H3 1-242, looked up)
chain: T1 sequence 1
notes: RecO, recombination mediator protein of the RecF pathway, E. coli; also called E. coli RecO; source: E. coli BL21(DE3) pLysS, plasmid pMCSG7, purified (Ni-NTA, HiTrap Heparin HP) after His-tag cleavage with TEV protease
B2: Cy3-(dT)68 (ssDNA)
DNA: TTTTTTTTTTTTTTTTTTTTTTTTTTTTTTTTTTTTTTTTTTTTTTTTTTTTTTTTTTTTTTTTTTTT
B3: Escherichia coli RecR protein (natural protein, E. coli, UniProt P0A7H6 1-201, looked up)
chain: T1 sequence 2
notes: RecR, recombination mediator protein, E. coli; in the complex with RecO found here it is a tetramer (RecR4O); also called E. coli RecR; source: E. coli BL21 Rosetta 2(DE3)pLysS, plasmid pMCSG7, purified (Ni-NTA), His-tag cleaved with TEV protease
B4: (dT)70 (ssDNA)
DNA: TTTTTTTTTTTTTTTTTTTTTTTTTTTTTTTTTTTTTTTTTTTTTTTTTTTTTTTTTTTTTTTTTTTTTT
B5: Cy3-(dT)140 (ssDNA)
DNA: TTTTTTTTTTTTTTTTTTTTTTTTTTTTTTTTTTTTTTTTTTTTTTTTTTTTTTTTTTTTTTTTTTTTTTTTTTTTTTTTTTTTTTTTTTTTTTTTTTTTTTTTTTTTTTTTTTTTTTTTTTTTTTTTTTTTTTTTTTTT

Data set [1] addresses SSB-Ct peptide C-terminal tail (Escherichia coli) (UniProt P0AGE0). The data set can be described thus: given as Ka. Conditions: cited from earlier work.
In data set [2] the target is B1. The data set can be described thus: AUC; sedimentation equilibrium, 18 000, 23 000 and 28 000 rpm, 25°C, buffer BTP (pH 8.0, 50 mM NaCl, 25% glycerol, 1 mM TCEP); RecO 2.24 uM, SSB-Ct 13.4 uM, Cy3-(dT)15 or Cy3-(dT)35 0.56 uM; absorbance of the Cy3-DNA at 546 nm; one-species fit. The note with it: both partners purified.
Data set [3] deals with B3. The data set can be described thus: AUC; sedimentation equilibrium, 18 000, 23 000 and 28 000 rpm, 25°C, buffer BTP; RecO 2.24 uM, RecR 8.96 uM, SSB-Ct 13.4 uM, Cy3-(dT)15 0.56 uM; absorbance of the Cy3-DNA at 546 nm; one-species fit. The note with it: both partners purified.
Data set [4] deals with T3, RecO;RecR;SSB-Ct peptide (P15) (Escherichia coli;Escherichia …, UniProt P0A7H3;P0A7H6;P0AGE0 1-242;1-201;, ||). In words: AUC sedimentation velocity; 13.4 uM SSB-Ct; 3.8 S; Buffer BTP: 20 mM Bis-Tris propane pH 8.0, 50 mM NaCl, 25% (v/v) glycerol, 1 mM TCEP, 25 C. Conditions: tags: His-tag cleaved with TEV (pMCSG7);His-tag cleaved with TEV (pMCSG7);; label: 3'-Cy3.
Data set [5] has as its target T1, RecO;RecR. The data set can be described thus: AUC sedimentation velocity; no SSB-Ct; 5.4 S; Buffer BTP: 20 mM Bis-Tris propane pH 8.0, 50 mM NaCl, 25% (v/v) glycerol, 1 mM TCEP, 25 C. Conditions: protein: recombinant;recombinant; tags: His-tag cleaved with TEV (pMCSG7);His-tag cleaved with TEV (pMCSG7); label: 3'-Cy3.
The target in data set [6] is T4, RecO;SSB-Ct peptide (P15) (Escherichia coli;Escherichia coli, UniProt P0A7H3;P0AGE0 1-242;, |). In words: AUC sedimentation velocity and equilibrium; 13.4 uM SSB-Ct; 1.2 S; 70.1 kDa, 2 RecO per DNA; Buffer BTP: 20 mM Bis-Tris propane pH 8.0, 50 mM NaCl, 25% (v/v) glycerol, 1 mM TCEP, 25 C. The note with it: tags: His-tag cleaved with TEV (pMCSG7);; copies: 1;1; label: 3'-Cy3.

The target of data set [7] is T4, RecO;SSB-Ct peptide (P15). In words: AUC sedimentation velocity; 13.4 uM SSB-Ct; 1.9 S; Buffer BTP: 20 mM Bis-Tris propane pH 8.0, 50 mM NaCl, 25% (v/v) glycerol, 1 mM TCEP, 25 C. Conditions: tags: His-tag cleaved with TEV (pMCSG7);; copies: 1;1; label: 3'-Cy3.
For data set [8], the target named is T3, RecO;RecR;SSB-Ct peptide (P15). The data set can be described thus: AUC sedimentation velocity; 13.4 uM SSB-Ct; 4.7 S; Buffer BTP: 20 mM Bis-Tris propane pH 8.0, 50 mM NaCl, 25% (v/v) glycerol, 1 mM TCEP, 25 C. The note with it: tags: His-tag cleaved with TEV (pMCSG7);His-tag cleaved with TEV (pMCSG7);; label: 3'-Cy3.
Data set [9] has as its target T1, RecO;RecR. In words: AUC sedimentation velocity; no SSB-Ct; 6.3 S; Buffer BTP: 20 mM Bis-Tris propane pH 8.0, 50 mM NaCl, 25% (v/v) glycerol, 1 mM TCEP, 25 C. The note with it: protein: recombinant;recombinant; tags: His-tag cleaved with TEV (pMCSG7);His-tag cleaved with TEV (pMCSG7); label: 3'-Cy3.
In data set [10] the target is B1. In words: AUC; sedimentation velocity, 42,000 rpm, 25°C, buffer BTP; RecO 2.24 uM, RecR 8.96 uM, Cy3-(dT)L (L = 15, 35, 68, 140) 0.56 uM, in the absence and presence of SSB-Ct 13.4 uM; absorbance of the Cy3-DNA at 546 nm; c(s) distributions. Conditions: both partners purified.
Data set [11] deals with the molecule itself. The data set can be described thus: AUC; sedimentation equilibrium, 18 000, 23 000 and 28 000 rpm, 25°C, buffer BTP; RecO 2.24 uM, RecR 8.96 uM, SSB-Ct 13.4 uM, Cy3-(dT)15 0.56 uM; absorbance of the Cy3-DNA at 546 nm; one-species fit.
The next data set concerns the target T2, RecO. The data set can be described thus: light scattering; no SSB-Ct; onset at RecO/DNA 6; Buffer BTP: 20 mM Bis-Tris propane pH 8.0, 50 mM NaCl, 25% (v/v) glycerol, 1 mM TCEP, 25 C. Conditions: protein: recombinant; tags: His-tag cleaved with TEV (pMCSG7).
For data set [12], the target named is T3, RecO;RecR;SSB-Ct peptide (P15). The data set can be described thus: AUC sedimentation velocity; 13.4 uM SSB-Ct; 4.8 S; Buffer BTP: 20 mM Bis-Tris propane pH 8.0, 50 mM NaCl, 25% (v/v) glycerol, 1 mM TCEP, 25 C. Conditions: tags: His-tag cleaved with TEV (pMCSG7);His-tag cleaved with TEV (pMCSG7);; label: 3'-Cy3.
In data set [13] the target is T1, RecO;RecR. In words: AUC sedimentation velocity; no SSB-Ct; 5.7 S; Buffer BTP: 20 mM Bis-Tris propane pH 8.0, 50 mM NaCl, 25% (v/v) glycerol, 1 mM TCEP, 25 C. Conditions: protein: recombinant;recombinant; tags: His-tag cleaved with TEV (pMCSG7);His-tag cleaved with TEV (pMCSG7); label: 3'-Cy3.
The target in data set [14] is T4, RecO;SSB-Ct peptide (P15). The data set can be described thus: AUC sedimentation velocity; 13.4 uM SSB-Ct; 2.1 S; Buffer BTP: 20 mM Bis-Tris propane pH 8.0, 50 mM NaCl, 25% (v/v) glycerol, 1 mM TCEP, 25 C. The note with it: tags: His-tag cleaved with TEV (pMCSG7);; copies: 1;1; label: 3'-Cy3.
Data set [15] has as its target T3, RecO;RecR;SSB-Ct peptide (P15). The data set can be described thus: AUC sedimentation velocity and equilibrium; 13.4 uM SSB-Ct; 2.6 S; 131.1 kDa, RecR4O with one DNA; Buffer BTP: 20 mM Bis-Tris propane pH 8.0, 50 mM NaCl, 25% (v/v) glycerol, 1 mM TCEP, 25 C. Conditions: tags: His-tag cleaved with TEV (pMCSG7);His-tag cleaved with TEV (pMCSG7);; label: 3'-Cy3.
The target in data set [16] is T1, RecO;RecR. In words: AUC sedimentation velocity; no SSB-Ct; 2.9 S; Buffer BTP: 20 mM Bis-Tris propane pH 8.0, 50 mM NaCl, 25% (v/v) glycerol, 1 mM TCEP, 25 C. Conditions: protein: recombinant;recombinant; tags: His-tag cleaved with TEV (pMCSG7);His-tag cleaved with TEV (pMCSG7); label: 3'-Cy3.
The target of data set [17] is T4, RecO;SSB-Ct peptide (P15). In words: AUC sedimentation velocity and equilibrium; 13.4 uM SSB-Ct; 0.7 S; 31.8 kDa, 1 RecO per DNA; Buffer BTP: 20 mM Bis-Tris propane pH 8.0, 50 mM NaCl, 25% (v/v) glycerol, 1 mM TCEP, 25 C. The note with it: tags: His-tag cleaved with TEV (pMCSG7);; copies: 1;1; label: 3'-Cy3.

SSB-Ct peptide C-terminal tail (Escherichia coli), sequence (P0AGE0 whole entry, looked up): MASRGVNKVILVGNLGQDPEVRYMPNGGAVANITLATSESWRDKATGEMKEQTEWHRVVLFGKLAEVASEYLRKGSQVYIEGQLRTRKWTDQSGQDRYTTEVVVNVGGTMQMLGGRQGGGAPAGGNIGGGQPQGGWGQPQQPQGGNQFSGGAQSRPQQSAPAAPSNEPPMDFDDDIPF

For the molecule RecO (from UniProt P0A7H3), the Kd in [1] is 0.0833 µM.

For the molecule PSNEPPMDFDDDIPF (source: bought: WatsonBio (Houston, TX)) [SSB-Ct peptide, composed of the 15 C-terminal amino acids of E. coli SSB], the binding result in [2] is given as “binds”.

As for B1, in data set [3], the “stoichiometry N” value turned out to be 1 RecO per RecR tetramer.

For TTTTTTTTTTTTTTTTTTTTTTTTTTTTTTTTTTT (ssDNA) [Cy3-(dT)35], the binding result (in data set [4]; in the data set with RecO;RecR [5]; in [6]) was “binds” in each case.

In the case of B2, the binding result (in [7]; in [8]; with RecO;RecR [9]) was “binds” in each case.

For B3, the binding result in data set [10] is “binds”. Further, the “stoichiometry N” value in data set [11] was determined as 4.

For the molecule B4, the binding result with RecO is listed as “binds”.

With B5, the binding result (in data set [12]; with RecO;RecR [13]; in data set [14]) was “binds” throughout.

Turning to TTTTTTTTTTTTTTT (ssDNA) [Cy3-(dT)15], the binding result (in data set [15]; with RecO;RecR [16]; in [17]) was “binds” throughout.
